Experimental data: paper PMC7736783 (Nucleic Acids Research, 2020)

Target: MTA1 (BAH-ELM2-SANT-ZnF);HDAC1;MBD2 (Homo sapiens?;Homo sapiens?;Homo …, UniProt Q13330;Q13547;Q9UBB5 1-453;1-482;145-411, ||)
Assay: EMSA; 1 uM DNA with 1- to 10-fold excess of complex; single bound species; EMSA: 20 mM HEPES pH 7.0, 75 mM potassium acetate, 2 mM DTT, 20 min on ice; 5% acrylamide gel in 0.5x TB
Details: protein: recombinant;recombinant;recombinant; tags: His10-Flag3 N-terminal, removed by TEV;none;none; chain copies: 2;2;1; label: none (ethidium bromide stain); blunt (annealed complementary oligonucleotides)

Chain of MTA1 (BAH-ELM2-SANT-ZnF);HDAC1;MBD2 (Q13330 1-453, chain 1 of 3): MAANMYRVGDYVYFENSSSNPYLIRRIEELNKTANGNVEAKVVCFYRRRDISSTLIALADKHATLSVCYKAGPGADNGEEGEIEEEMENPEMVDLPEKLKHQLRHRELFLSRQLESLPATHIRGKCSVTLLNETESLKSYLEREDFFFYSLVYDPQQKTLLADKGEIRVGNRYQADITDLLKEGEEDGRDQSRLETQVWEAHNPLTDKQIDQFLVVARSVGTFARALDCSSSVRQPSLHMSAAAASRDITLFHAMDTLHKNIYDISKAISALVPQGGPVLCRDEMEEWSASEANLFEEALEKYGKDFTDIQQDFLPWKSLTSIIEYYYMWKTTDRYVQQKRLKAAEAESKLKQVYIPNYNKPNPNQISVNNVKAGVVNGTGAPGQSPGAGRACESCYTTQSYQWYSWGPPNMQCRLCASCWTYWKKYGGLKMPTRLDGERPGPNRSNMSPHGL
Chain of MTA1 (BAH-ELM2-SANT-ZnF);HDAC1;MBD2 (Q13547 whole entry, chain 2 of 3): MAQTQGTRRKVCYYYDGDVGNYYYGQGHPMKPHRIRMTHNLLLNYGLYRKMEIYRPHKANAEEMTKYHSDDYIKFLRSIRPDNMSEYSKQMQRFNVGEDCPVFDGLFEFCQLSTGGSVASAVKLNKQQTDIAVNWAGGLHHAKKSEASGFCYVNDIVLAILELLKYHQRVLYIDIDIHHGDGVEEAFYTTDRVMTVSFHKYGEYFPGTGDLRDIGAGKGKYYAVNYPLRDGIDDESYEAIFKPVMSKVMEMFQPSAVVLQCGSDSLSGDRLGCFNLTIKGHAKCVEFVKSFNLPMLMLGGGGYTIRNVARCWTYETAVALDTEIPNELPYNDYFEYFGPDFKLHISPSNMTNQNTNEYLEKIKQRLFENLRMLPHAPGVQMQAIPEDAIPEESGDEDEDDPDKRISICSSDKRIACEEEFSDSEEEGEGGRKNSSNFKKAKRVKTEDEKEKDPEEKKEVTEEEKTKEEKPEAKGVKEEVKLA
Chain of MTA1 (BAH-ELM2-SANT-ZnF);HDAC1;MBD2 (Q9UBB5 145-411, chain 3 of 3): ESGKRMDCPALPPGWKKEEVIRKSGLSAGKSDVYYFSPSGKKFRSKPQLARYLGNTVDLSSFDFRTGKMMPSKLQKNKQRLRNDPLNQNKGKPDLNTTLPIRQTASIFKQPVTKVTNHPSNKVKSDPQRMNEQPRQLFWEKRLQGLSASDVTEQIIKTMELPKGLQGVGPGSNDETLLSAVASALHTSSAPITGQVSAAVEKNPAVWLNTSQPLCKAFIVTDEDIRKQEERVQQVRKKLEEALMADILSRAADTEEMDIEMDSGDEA

B1: methylated DNA duplex 15 nt (dsDNA)
DNA 1: GGAATCGGCTCATGC
DNA 2: GCATGAGCCGATTCC
modifications: 5-methylcytosine at C6 of strand 1 (printed mC in CpG); methylation of the complementary strand not stated
- binding result: binds
